In publication PMC6701106:
Positions of bridges follow the written chain, without caps; N, C: chain ends. No end group written: not given here.

Molecular target: mAb3F3 (mouse)
Test: SPR; Biacore T200; antibodies injected for 60 s at 10 μl/min in the active flow cell; BSA conjugated peptide antigens flowed at 1.25 to 20 nM

Row | Kd [nM] | koff [s⁻¹] | kon [M⁻¹ s⁻¹] | Binder
1 | 406 | 0.0105 | 25900 | CGLRSFTRQARVVGGTDADEGEWP [Mat-Linear (human Prss14/ST14 aa604-627, linear 24mer)]
2 | 5.33 | 0.00342 | 641000 | CGLRSFTRQARVVGGTDADEGEWPC (disulfide 1-25; also: conjugated to BSA) [BSA conjugated Mat-Loop (human Prss14/ST14 aa604-627 plus C-terminal cysteine, circular 25mer)]
